Data set [1] deals with HeLa Kyoto. The experiment in a line: melting temperature (median over replicates), in situ; higher = more thermally stable.
The test system of data set [2] is HeLa Kyoto. The experiment in a line: solubility in G1/S (NP-40 vs SDS abundance) (log2 ratio); higher = more soluble. Particulars: cell cycle stage: G1/S.
Data set [3] deals with HeLa Kyoto. The experiment in a line: solubility change mitosis vs G1/S (difference of NP-40 vs SDS log2 ratios) (log2 ratio difference); higher = more soluble in mitosis.
The subject of data set [4] is HeLa Kyoto. Kind of data set: thermal stability score vs G1/S (z-score of summed log2 fold changes over temperatures); higher = more thermally stable than in G1/S.
Setting [5] is: cell cycle stage: early G1 (4.5 h after nocodazole release).
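For melting temperature (median over replicates), in situ in this document: HeLa Kyoto cells synchronized by double thymidine or nocodazole block, proteins quantified by TMT10plex mass spectrometry, three independent biological replicates.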
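For solubility change mitosis vs G1/S (difference of NP-40 vs SDS log2 ratios) in this document: synchronized HeLa Kyoto cells (double thymidine block for G1/S, nocodazole release for mitosis), protein amounts in NP-40 versus SDS lysates quantified by mass spectrometry, three biological replicates.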
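For solubility in G1/S (NP-40 vs SDS abundance) in this document: HeLa Kyoto cells arrested at G1/S by double thymidine block, proteins quantified by TMT10plex mass spectrometry in mild NP-40 versus SDS extracts, three biological replicates.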
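For thermal stability score vs G1/S (z-score of summed log2 fold changes over temperatures) in this document: synchronized HeLa Kyoto cells, proteins quantified by TMT10plex mass spectrometry, three biological replicates, mitosis taken 0.5 h after nocodazole release, G1/S directly after double thymidine block.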

As for “MVSHGSSPSLLEALSSDFLACKICLEQLRAPKTLPCLHTYCQDCLAQLADGGRVRCPECRETVPVPPEGVASFKTNFFVNGLLDLVKARACGDLRAGKPACALCPLVGGTSTGGPATARCLDCADDLCQACADGHRCTRQTHTHRVVDLVGYRAGWYDEEARERQAAQCPQHPGEALRFLCQPCSQLLCRECRLDPHLDHPCLPLAEAVRARRPGLEGLLAGVDNNLVELEAARRVEKEALARLREQAARVGTQVEEAAEGVLRALLAQKQEVLGQLRAHVEAAEEAARERLAELEGREQVARAAAAFARRVLSLGREAEILSLEGAIAQRLRQLQGCPWAPGPAPCLLPQLELHPGLLDKNCHLLRLSFEEQQPQKDGGKDGAGTQGGEESQSRREDEPKTERQGGVQPQAGDGAQTPKEEKAQTTREEGAQTLEEDRAQTPHEDGGPQPHRGGRPNKKKKFKGRLKSISREPSPALGPNLDGSGLLPRPIFYCSFPTRMPGDKRSPRITGLCPFGPREILVADEQNRALKRFSLNGDYKGTVPVPEGCSPCSVAALQSAVAFSASARLYLINPNGEVQWRRALSLSQASHAVAALPSGDRVAVSVAGHVEVYNMEGSLATRFIPGGKASRGLRALVFLTTSPQGHFVGSDWQQNSVVICDGLGQVVGEYKGPGLHGCQPGSVSVDKKGYIFLTLREVNKVVILDPKGSLLGDFLTAYHGLEKPRVTTMVDGRYLVVSLSNGTIHIFRVRSPDS [TRIM56]”, the melting temperature in data set [1] (cell cycle stage: G1/S) was 52.4 °C; in data set [1] (cell cycle stage: mitosis), 50.7 °C. Moreover, the “solubility in G1/S (log2)” value in data set [2] was -0.379. The “solubility change mitosis (log2)” value in data set [3] came to 0.0648. In addition, the thermal stability score in data set [4] (setting [5]) stood at 0.0282; in data set [4] (cell cycle stage: mitosis), 0.527.
For “MVSPATRKSLPKVKAMDFITSTAILPLLFGCLGVFGLFRLLQWVRGKAYLRNAVVVITGATSGLGKECAKVFYAAGAKLVLCGRNGGALEELIRELTASHATKVQTHKPYLVTFDLTDSGAIVAAAAEILQCFGYVDILVNNAGISYRGTIMDTTVDVDKRVMETNYFGPVALTKALLPSMIKRRQGHIVAISSIQGKMSIPFRSAYAASKHATQAFFDCLRAEMEQYEIEVTVISPGYIHTNLSVNAITADGSRYGVMDTTTAQGRSPVEVAQDVLAAVGKKKKDVILADLLPSLAVYLRTLAPGLFFSLMASRARKERKSKNS [DHRS7B]”, the melting temperature was found to be 51.6 °C in data set [1] (cell cycle stage: G1/S) and 51.4 °C in data set [1] (cell cycle stage: mitosis). Also, the “solubility in G1/S (log2)” value in data set [2] is -0.22. The “solubility change mitosis (log2)” value in data set [3] is -0.121. The thermal stability score is -0.951 in data set [4] (setting [5]) and -0.984 in data set [4] (cell cycle stage: mitosis).
Take “MVSVINTVDTSHEDMIHDAQMDYYGTRLATCSSDRSVKIFDVRNGGQILIADLRGHEGPVWQVAWAHPMYGNILASCSYDRKVIIWREENGTWEKSHEHAGHDSSVNSVCWAPHDYGLILACGSSDGAISLLTYTGEGQWEVKKINNAHTIGCNAVSWAPAVVPGSLIDHPSGQKPNYIKRFASGGCDNLIKLWKEEEDGQWKEEQKLEAHSDWVRDVAWAPSIGLPTSTIASCSQDGRVFIWTCDDASSNTWSPKLLHKFNDVVWHVSWSITANILAVSGGDNKVTLWKESVDGQWVCISDVNKGQGSVSASVTEGQQNEQ [SEC13]”: the melting temperature was found to be 50.5 °C in data set [1] (cell cycle stage: G1/S) and 50.4 °C in data set [1] (cell cycle stage: mitosis). In data set [2], the “solubility in G1/S (log2)” value is -0.204. Besides, the “solubility change mitosis (log2)” value in data set [3] was -0.09. Moreover, the thermal stability score in data set [4] (setting [5]) is -0.768; in data set [4] (cell cycle stage: mitosis), -0.265.
Turning to “MVVTRSARAKASIQAASAESSGQKSFAANGIQAHPESSTGSDARTTAESQTTGKQSLIPRTPKARKRKSRTTGSLPKGTEPSTDGETSEAESNYSVSEHHDTILRVTRRRQILIACSPVSSVRKKPKVTPTKESYTEEIVSEAESHVSGISRIVLPTEKTTGARRSKAKSLTDPSQESHTEAISDAETSSSDISFSGIATRRTRSMQRKLKAQTEKKDSKIVPGNEKQIVGTPVNSEDSDTRQTSHLQARSLSEINKPNFYNNDFDDDFSHRSSENILTVHEQANVESLKETKQNCKDLDEDANGITDEGKEINEKSSQLKNLSELQDTSLQQLVSQRHSTPQNKNAVSVHSNLNSEAVMKSLTQTFATVEVGRWNNNKKSPIKASDLTKFGDCGGSDDEEESTVISVSEDMNSEGNVDFECDTKLYTSAPNTSQGKDNSVLLVLSSDESQQSENSENEEDTLCFVENSGQRESLSGDTGSLSCDNALFVIDTTPGMSADKNFYLEEEDKASEVAIEEEKEEEEDEKSEEDSSDHDENEDEFSDEEDFLNSTKAKLLKLTSSSIDPGLSIKQLGGLYINFNADKLQSNKRTLTQIKEKKKNELLQKAVITPDFEKNHCVPPYSESKYQLQKKRRKERQKTAGDGWFGMKAPEMTNELKNDLKALKMRASMDPKRFYKKNDRDGFPKYFQIGTIVDNPADFYHSRIPKKQRKRTIVEELLADSEFRRYNRRKYSEIMAEKAANAAGKKFRKKKKFRN [DNTTIP2]”, the melting temperature in data set [1] (cell cycle stage: G1/S) is 48.9 °C; in data set [1] (cell cycle stage: mitosis), 52.4 °C. Also, the “solubility in G1/S (log2)” value in data set [2] is -2.06. In data set [3], the “solubility change mitosis (log2)” value turned out to be 1.04. The thermal stability score in data set [4] (setting [5]) is 2.7; in data set [4] (cell cycle stage: mitosis) it was 4.77.

Values taken from the supplement of paper PMC5998384.
